Reference: publication PMC12711026 (PLOS Pathogens, 2025)
Where no end group is shown, it is not given here. The star is where a group is joined. Biotin = O=C1N[C@H]2[C@H](CS[C@H]2CCCCC(=O)*)N1

Target: T1, carrier-free recombinant human Netrin-1-His (human, UniProt O95631 25-604)
T1 construct: also called rNetrin-1-His; rNetrin-1
Experiment: pull-down; Pierce Pull-Down Biotinylated Protein:Protein Interaction Kit; 150 μL of 0.5 mg/mL biotinylated peptide on streptavidin gel; 100 μL of 1 ng/μL recombinant LHBs with 0, 1, 2 or 4 ng/μL rNetrin-1-His; western blot
Details: both partners purified

binding result: binds
Binder: Biotin-NSKMYLKTRA (also called C-terminal HBS of LIPG) [biotinylated LIPG-CTD HBS peptide (amino acids 331–340)]
